The results in this text go back to paper PMC5875850, “Insights into DNA substrate selection by APOBEC3G from structural, biochemical, and functional studies”.

Data set [1] deals with Pot1-A3GCTD fusion (Pot1A3GCTD) (Schizosaccharomyces pombe (Pot1) / Homo …, UniProt O13988 1-185+Q9HC16:195-384, L234K;C243A;F310K;C321A;C356A;internal_change). In words: size exclusion chromatography; Kinetic Kd: 20 mM Tris pH 8.0, 1 mM DTT, 37 C, 1-50 uM enzyme, 40 nM DNA; SEC/complex: 50 mM Tris pH 7.0, 100 mM NaCl, 0.1 mM TCEP (stated for the Pot1-A3GCTD gel filtration); crystals 20 C, 100 mM HEPES pH 7, 200 mM LiCl, 20% PEG 6000. Conditions: protein: recombinant; tags: His6-Staph nuclease tag removed by SARS-CoV Mpro; single strand.

Data set [2] addresses A3GCTD WT (A3G191-384-2K3A) (Homo sapiens, UniProt Q9HC16 191-384, L234K;C243A;F310K;C321A;C356A). In words: single-turnover deamination kinetics (kobs vs [E], hyperbolic fit); Kinetic Kd: 20 mM Tris pH 8.0, 1 mM DTT, 37 C, 1-50 uM enzyme, 40 nM DNA; SEC/complex: 50 mM Tris pH 7.0, 100 mM NaCl, 0.1 mM TCEP (stated for the Pot1-A3GCTD gel filtration); crystals 20 C, 100 mM HEPES pH 7, 200 mM LiCl, 20% PEG 6000. Conditions: protein: recombinant; tags: His6-MBP tag removed by SARS-CoV Mpro; label: 5' 32P; single strand.

Chain of A3GCTD WT (A3G191-384-2K3A) (Q9HC16 191-384 L234K/C243A/F310K/C321A/C356A, one chain of several): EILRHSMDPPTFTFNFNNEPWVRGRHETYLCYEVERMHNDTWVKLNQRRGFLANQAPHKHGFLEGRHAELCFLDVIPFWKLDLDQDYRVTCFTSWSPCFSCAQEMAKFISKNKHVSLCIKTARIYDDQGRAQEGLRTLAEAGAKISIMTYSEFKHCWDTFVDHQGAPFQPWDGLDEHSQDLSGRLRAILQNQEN
Chain of Pot1-A3GCTD fusion (Pot1A3GCTD) (O13988 other isoform, or with tags, fused parts or gaps L234K;C243A;F310K;C321A;C356A;): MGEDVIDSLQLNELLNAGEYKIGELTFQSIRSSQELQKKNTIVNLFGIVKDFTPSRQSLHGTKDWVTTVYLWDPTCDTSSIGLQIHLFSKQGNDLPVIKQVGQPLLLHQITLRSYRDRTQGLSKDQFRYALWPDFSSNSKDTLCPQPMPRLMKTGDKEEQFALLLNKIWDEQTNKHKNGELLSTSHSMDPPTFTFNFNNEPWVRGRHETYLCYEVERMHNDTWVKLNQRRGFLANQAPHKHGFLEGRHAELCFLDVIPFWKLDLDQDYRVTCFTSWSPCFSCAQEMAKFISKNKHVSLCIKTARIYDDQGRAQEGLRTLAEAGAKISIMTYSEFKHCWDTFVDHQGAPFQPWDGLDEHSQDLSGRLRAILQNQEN

In the case of AGAAGACCCAAAGAAGAGGAAGCAGGTTAC (ssDNA) [30nt Pot1/A3G substrate (CCCA + GGTTAC)], the binding result in data set [1] was “binds”.

For orientation: Kd means a measure of binding affinity in units of concentration. With TAGAAAGGGAGACCCAAAGAGGAAAGGTGA (ssDNA) [CCCA 30-mer], in data set [2], the Kd was 26 µM.
